Assay results reported in article PMC10889306, “ApoE Isoforms Inhibit Amyloid Aggregation of Proinflammatory Protein S100A9” (International Journal of Molecular Sciences, 2024).
“And” between values parts separate entries of the source, which are not always exact repeats. Identical values can stand only once.

How the values were obtained:
[1] = target: the molecule itself; assay: SDS-stable complex by Western blot of pellet and SEC fractions; 100 uM S100A9 with 5 uM lipid-free ApoE4, PBS, 42 C, 70 h (methods: 72 h); centrifuged 14,000 rpm 15 min; pellet and Superdex 200 peaks of the supernatant on SDS-PAGE and Western blot with anti-S100A9 polyclonal antibodies (Santa Cruz)
ApoE3 (lipid-free) [2] = target: T1, ApoE3 (lipid-free) (human, UniProt P02649 19-317); assay: cross-linking; native proteins, 4 uM S100A9 and 4 uM ApoE isoform (1:1), preincubated at 4 C overnight; glutaraldehyde at 10- and 100-fold molar excess, 30 min at 4 C, quenched with Tris; SDS-PAGE and Western blot with anti-S100A9 polyclonal antibodies; conditions: both partners purified
T1 construct: Apolipoprotein E, isoform ApoE3 (Cys112/Arg158), human; printed as a 299-residue lipoprotein; the methods call the ApoE isoforms full-length; PDB 2L7B (NMR structure of full-length ApoE3) was used for the modelling only; also called Apolipoprotein E3; lipid-free ApoE3; source: bought: AlexoTech AB (recombinant), then size-exclusion chromatography (Superdex 200)
T1 sequence (P02649 19-317): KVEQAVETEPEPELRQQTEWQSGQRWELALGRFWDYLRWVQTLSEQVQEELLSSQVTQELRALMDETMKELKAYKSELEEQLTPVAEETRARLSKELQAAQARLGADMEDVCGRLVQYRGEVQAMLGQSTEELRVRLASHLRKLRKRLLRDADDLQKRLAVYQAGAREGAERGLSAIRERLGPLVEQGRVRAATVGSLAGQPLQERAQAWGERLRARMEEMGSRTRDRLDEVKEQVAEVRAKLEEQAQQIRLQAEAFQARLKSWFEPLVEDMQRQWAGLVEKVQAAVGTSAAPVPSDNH

ApoE4 (lipid-free) = target: T2, ApoE4 (lipid-free) (human, UniProt P02649 19-317, Cys112 to Arg112); assay: as above; conditions: both partners purified
T2 construct: Apolipoprotein E, isoform ApoE4 (Arg112/Arg158), human; printed as a 299-residue lipoprotein; the methods call the ApoE isoforms full-length; Natural allele APOE e4; differs from ApoE3 only at position 112; also called Apolipoprotein E4; lipid-free ApoE4; source: bought: AlexoTech AB (recombinant), then size-exclusion chromatography (Superdex 200)
T2 sequence (P02649 other isoform, or with tags, fused parts or gaps Cys112 to Arg112 | Cys112 to Arg112): as the sequence (P02649 19-317) above, with C112R counted along it

[3] = target: T3, ApoE3-DOPC (lipidated ApoE3) (human, UniProt P02649 19-317); assay: SDS-stable complex by SDS-PAGE and Western blot; 50 uM S100A9 with 2 uM lipid-free or lipidated ApoE isoform, PBS, 42 C, 70 h, non-stirring; reducing Laemmli buffer, 4-20% gel; Coomassie and Western blot with anti-S100A9 polyclonal antibody (Invitrogen); conditions: both partners purified
T3 construct: Apolipoprotein E, isoform ApoE3 (Cys112/Arg158), human; printed as a 299-residue lipoprotein; 'Lipidated full-length ApoE isoforms'; also called DOPC-ApoE3; source: bought: AlexoTech AB (recombinant)
T3 sequence (P02649 19-317): as the sequence (P02649 19-317) above

[4] = target: the molecule itself; assay: as above
ApoE3 (lipid-free) [5] = target: T1, ApoE3 (lipid-free); assay: as above; conditions: both partners purified
[6] = target: T4, ApoE4-DOPC (lipidated ApoE4) (human, UniProt P02649 19-317, Cys112 to Arg112); assay: as above; conditions: both partners purified
T4 construct: Apolipoprotein E, isoform ApoE4 (Arg112/Arg158), human; printed as a 299-residue lipoprotein; 'Lipidated full-length ApoE isoforms'; source: bought: AlexoTech AB (recombinant)
T4 sequence (P02649 other isoform, or with tags, fused parts or gaps Cys112 to Arg112 | Cys112 to Arg112): as the sequence (P02649 19-317) above, with C112R counted along it

B1: S100A9 (natural protein)
chain: KMSQLERNIETIINTFHQYSVKLGHPDTLNQGEFKELVRKDLQNFLKKENKNEKVIEHIMEDLDTNADKQLSFEEFIMLMARLTWASHEKMHEGDEGPGHHHKPGLGEGTP
notes: 13 kDa monomer on the gels; PDB 5I8N (S100A9 dimer, NMR) was used for the modelling only; also called native S100A9; S100A9 amyloids; source: Escherichia coli, purified as described previously [57]; Superdex 200 gel filtration for the cross-linking
[1]
  stoichiometry N: 2
ApoE3 (lipid-free) [2]
  stoichiometry N: 2 S100A9 per ApoE
ApoE4 (lipid-free)
  stoichiometry N: 1 S100A9 per ApoE and 2 S100A9 per ApoE
[3]
  stoichiometry N: 1 S100A9 per ApoE
[4]
  stoichiometry N: 3
ApoE3 (lipid-free) [5]
  stoichiometry N: 1 S100A9 per ApoE
[6]
  stoichiometry N: 1 S100A9 per ApoE
